Among the data in publication PMC8635433 (Science Advances, 2021) are Kd values, retold here.

The experiment deals with coxsackie and adenovirus receptor (CAR), immobilised for SPR (UniProt P78310 20-365). Put plainly: SPR; BIAcore T200; about 2000 RU of CAR, DSG2 and CD46 amine-coupled to a CM5 chip; fiber knob proteins flowed over, 1:2 serial dilutions; 25°C, PBS with 0.001% P20, 30 μl/min; 1:1 interaction model. To be noted: both partners purified. Background: Surface plasmon resonance follows binding to a sensor surface in real time, without labels.
Chain of coxsackie and adenovirus receptor (CAR), immobilised for SPR (P78310 20-365): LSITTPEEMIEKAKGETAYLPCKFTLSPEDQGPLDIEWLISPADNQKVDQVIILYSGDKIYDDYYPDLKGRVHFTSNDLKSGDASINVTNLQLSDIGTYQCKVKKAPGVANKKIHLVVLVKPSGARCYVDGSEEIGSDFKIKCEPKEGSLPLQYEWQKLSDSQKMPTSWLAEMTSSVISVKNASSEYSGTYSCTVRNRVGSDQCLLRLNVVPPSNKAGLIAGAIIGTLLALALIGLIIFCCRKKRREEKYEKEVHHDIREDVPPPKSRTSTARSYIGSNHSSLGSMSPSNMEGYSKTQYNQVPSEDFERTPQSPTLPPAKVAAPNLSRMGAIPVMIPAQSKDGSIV

B1: HAdV-C5 fiber knob protein (domain or fragment)
chain: TGAITVGNKNNDKLTLWTTPAPSPNCRLNAEKDAKLTLVLTKCGSQILATVSVLAVKGSLAPISGTVQSAHLIIRFDENGVLLNNSFLDPEYWNFRNGDLTEGTAYTNAVGFMPNLSAYPKSHGKTAKSNIVSQVYLNGDKTKPVTLTITLNGTQETGDTTPSAYSMSFSWDWSGHNYINEIFATSSYTFSYIAQE
notes: source: recombinant soluble knob protein, purified
Molecule B1 came in with a Kd of 60 pM.

One may read the Kd as a measure of binding affinity in units of concentration. Higher therefore signals lower affinity.
